The values below come from publication PMC5705802, “A hypermorphic antioxidant response element is associated with increased MS4A6A expression and Alzheimer's disease”.

Data set [1] addresses T1, NRF2;MAFG (Homo sapiens;Homo sapiens?, UniProt Q16236;O15525 1-605;1-162, |). Nature of the data set: competition EMSA; excess unlabeled vs labeled N1; 20 mM HEPES (pH not stated), 4 mM MgCl2, 20 mM KCl, 5 mM DTT, 1 mM EDTA, 100 ug/ml BSA, 4% glycerol, poly(dI-dC), 30 min room temperature; native gel 1X TBE. The following applies: protein: recombinant;commercial; tags: His, Flag3 (plasmid pPROHEX-HC-Flag3-NRF2);; copies: 1;1; blunt. A general note: Mobility shift assays separate free from complexed probe on a gel.

Data set [2] deals with T2, NRF1;MAFG (Homo sapiens;Homo sapiens?, UniProt Q14494;O15525 1-772;1-162, |). In words: competition EMSA; unlabeled vs labeled N1; 20 mM HEPES (pH not stated), 4 mM MgCl2, 20 mM KCl, 5 mM DTT, 1 mM EDTA, 100 ug/ml BSA, 4% glycerol, poly(dI-dC), 30 min room temperature; native gel 1X TBE. The following applies: protein: ivt;commercial; tags: His (plasmid pPB-N-His-NRF1, abm PV028854);; copies: 1;1; blunt.

Data set [3] deals with T3, FOS;JUN (Homo sapiens?;Homo sapiens?, UniProt P01100;P05412 1-380;1-331, |). The description is as above. The following applies: protein: commercial;commercial; tags: ;; copies: 1;1; blunt.
In data set [4] the target is T3, FOS;JUN. Nature of the data set: EMSA; 75 nM each; unlabeled N1 also competes; 20 mM HEPES (pH not stated), 4 mM MgCl2, 20 mM KCl, 5 mM DTT, 1 mM EDTA, 100 ug/ml BSA, 4% glycerol, poly(dI-dC), 30 min room temperature; native gel 1X TBE. The conditions noted are these: protein: commercial;commercial; tags: ;; copies: 1;1; label: IRDye-700 as probe; blunt.
Data set [5] has as its target T1, NRF2;MAFG. In words: EMSA; 75 nM NRF2, 37.5 nM MAFG; unlabeled N1 also competes; 20 mM HEPES (pH not stated), 4 mM MgCl2, 20 mM KCl, 5 mM DTT, 1 mM EDTA, 100 ug/ml BSA, 4% glycerol, poly(dI-dC), 30 min room temperature; native gel 1X TBE. The conditions noted are these: protein: recombinant;commercial; tags: His, Flag3 (plasmid pPROHEX-HC-Flag3-NRF2);; copies: 1;1; label: IRDye-700 as probe; blunt.

Data set [6] deals with T2, NRF1;MAFG. Nature of the data set: EMSA; TNT NRF1 2 ul/20 ul, 37.5 nM MAFG; unlabeled N1 also competes; 20 mM HEPES (pH not stated), 4 mM MgCl2, 20 mM KCl, 5 mM DTT, 1 mM EDTA, 100 ug/ml BSA, 4% glycerol, poly(dI-dC), 30 min room temperature; native gel 1X TBE. The conditions noted are these: protein: ivt;commercial; tags: His (plasmid pPB-N-His-NRF1, abm PV028854);; copies: 1;1; label: IRDye-700 as probe; blunt.

The target of data set [7] is T2, NRF1;MAFG. In words: competition EMSA; unlabeled vs labeled N1; legend once says NRF2 for these lanes (apparent typo); 20 mM HEPES (pH not stated), 4 mM MgCl2, 20 mM KCl, 5 mM DTT, 1 mM EDTA, 100 ug/ml BSA, 4% glycerol, poly(dI-dC), 30 min room temperature; native gel 1X TBE. The conditions noted are these: protein: ivt;commercial; tags: His (plasmid pPB-N-His-NRF1, abm PV028854);; copies: 1;1; blunt.

T3 sequence (P01100 whole entry, chain 1 of 2): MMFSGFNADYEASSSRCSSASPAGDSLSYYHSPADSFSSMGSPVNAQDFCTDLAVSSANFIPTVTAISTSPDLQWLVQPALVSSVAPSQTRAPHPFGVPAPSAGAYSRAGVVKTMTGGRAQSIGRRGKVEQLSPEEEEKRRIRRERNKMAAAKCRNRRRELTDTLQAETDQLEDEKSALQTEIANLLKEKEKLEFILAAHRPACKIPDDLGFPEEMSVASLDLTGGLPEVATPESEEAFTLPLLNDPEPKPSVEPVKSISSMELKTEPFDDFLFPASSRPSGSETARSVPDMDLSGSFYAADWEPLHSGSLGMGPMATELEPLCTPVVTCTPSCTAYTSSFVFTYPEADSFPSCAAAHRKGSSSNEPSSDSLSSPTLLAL
T3 sequence (P05412 whole entry, chain 2 of 2): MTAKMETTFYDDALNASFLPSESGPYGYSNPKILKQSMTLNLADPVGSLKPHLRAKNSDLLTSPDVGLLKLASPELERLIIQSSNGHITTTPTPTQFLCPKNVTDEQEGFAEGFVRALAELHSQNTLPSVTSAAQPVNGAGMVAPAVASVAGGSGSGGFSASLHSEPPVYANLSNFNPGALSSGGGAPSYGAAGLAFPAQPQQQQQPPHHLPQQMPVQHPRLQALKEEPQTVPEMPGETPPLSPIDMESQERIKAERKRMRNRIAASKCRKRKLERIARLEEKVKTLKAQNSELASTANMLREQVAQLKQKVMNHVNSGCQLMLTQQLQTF

B1: MS4A6A ARE rs667897A (dsDNA)
DNA 1: CTGCGCTCCAAACCCGCTGTGTCATACCATACCGGATGT
DNA 2: ACATCCGGTATGGTATGACACAGCGGGTTTGGAGCGCAG
As for B1, the binding result in data set [1], in data set [2] and in data set [3] was “binds” each time.

B2: MS4A6A rs667897G (dsDNA)
DNA 1: CTGCGCTCCAAACCCGCTGTGTCGTACCATACCGGATGT
DNA 2: ACATCCGGTATGGTACGACACAGCGGGTTTGGAGCGCAG
In the case of B2, the binding result in data set [1] and in data set [3] was “no binding” in each case.

B3: NQO1 ARE WT (NQO1WT) (dsDNA)
DNA 1: AATCCGCAGTCACAGTGACTCAGCAGAATCTGAGCCTAG
DNA 2: CTAGGCTCAGATTCTGCTGAGTCACTGTGACTGCGGATT
For B3, the binding result in data set [4], in data set [5] and in data set [6] was “binds” each time.

B4: NQO1 ARE mutant (NQO1mut) (dsDNA)
DNA 1: AATCCGCAGTCACAGACTCCTACGAGAATCTGAGCCTAG
DNA 2: CTAGGCTCAGATTCTCGTAGGAGTCTGTGACTGCGGATT
For the molecule B4, the binding result in data set [3] and in data set [7] was “no binding” throughout.
